The target in this assay is T1, I53-50A trimer.
T1 construct: also called trimeric I53-50A
T1 chain: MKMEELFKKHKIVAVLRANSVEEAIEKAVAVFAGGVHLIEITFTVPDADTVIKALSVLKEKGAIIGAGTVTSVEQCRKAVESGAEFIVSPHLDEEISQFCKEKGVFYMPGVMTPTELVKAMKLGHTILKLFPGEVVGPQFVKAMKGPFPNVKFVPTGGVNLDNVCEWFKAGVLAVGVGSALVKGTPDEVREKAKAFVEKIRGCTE
Kind of assay: in vitro co-assembly into partial valency nanostructures, purified by size exclusion chromatography. On the technique in general: SEC sorts molecules by how far they enter the pores of the column.

B1: I53-50B.4PosT1 pentamer (designed binder)
chain: MNQHSHKDHETVRIAVVRARWHAEIVDACVSAFEAAMRDIGGDRFAVDVFDVPGAYEIPLHARTLAETGRYGAVLGTAFVVNGGIYRHEFVASAVINGMMNVQLNTGVPVLSAVLTPHNYDKSKAHTLLFLALFAVKGMEAARACVEILAAREKIAA
notes: Expressed and purified as in Bale et al; also called I53-50B.4PT1; I53-50B.4PosT1 pentamers
With B1, the binding result is given as “binds”.

The values are drawn from patent US20240150411A1 (University of Washington, published 2024).
